3 molecules from patent US20080199514A1 (BURNHAM INSTITUTE, published 2008) can be followed below.

One data set has as its target T1, GST tag alone (UniProt P08515 1-218 = GST).
T1 construct: Negative control of the pull-down; also called GST alone
Nature of the data set: GST pull-down with glutathione-agarose from E. coli BL21 lysates, S-protein-HRP blot. The procedure: The s-tagged constructs were prepared using pET-30, (Novagen, San Diego, Calif. 92121), however, other vector systems can be used. […] The constructs were equally expressed using E. coli BL21. Either a GST-Tagged SH3 domain of Csk or a GST tag alone was co-expressed with the LYP fragment constructs. A glutathione-agarose bead was added to each of the BL21 lysates. Precipitated proteins were separated by gel-electrophoresis and transferred to a nitrocellulose filter. The filters were incubated with S-protein HRP and ECL reagent to allow for chemiluminescent detection of Csk bound LYP. […] None of the constructs precipitated when co-expressed with GST alone. In this example, bound material was detected using S-protein-horseradish peroxidase.

In data set [1] the target is T2, endogenous Csk from Jurkat T cells (UniProt P41240 2-450, limits assumed).
T2 construct: mature; Native protein in the cell lysate
The data set is described as follows: S-tag pull-down from Jurkat T cell lysate, anti-Csk blot. The method, then: Jurkat T cells, which endogenously express Csk, were lysed and the protein lysate was subjected to a pull down assay using S-tagged LYP either having R620 or having W620. A blot was performed and detection was carried out using an anti-Csk primary antibody in a two-stage detection system.

In data set [2] the target is T3, Lck phosphopeptide (ARLIEDNEpYTAAREG).
T3 chain: ARLIEDNEYTAAREG

T1 sequence (P08515 whole entry): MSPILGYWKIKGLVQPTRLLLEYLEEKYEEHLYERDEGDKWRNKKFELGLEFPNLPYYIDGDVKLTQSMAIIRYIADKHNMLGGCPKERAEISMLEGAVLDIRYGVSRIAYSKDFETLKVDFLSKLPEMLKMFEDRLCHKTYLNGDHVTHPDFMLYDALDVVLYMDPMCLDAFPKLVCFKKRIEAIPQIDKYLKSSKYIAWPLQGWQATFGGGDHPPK
T2 sequence (P41240 2-450 limits assumed): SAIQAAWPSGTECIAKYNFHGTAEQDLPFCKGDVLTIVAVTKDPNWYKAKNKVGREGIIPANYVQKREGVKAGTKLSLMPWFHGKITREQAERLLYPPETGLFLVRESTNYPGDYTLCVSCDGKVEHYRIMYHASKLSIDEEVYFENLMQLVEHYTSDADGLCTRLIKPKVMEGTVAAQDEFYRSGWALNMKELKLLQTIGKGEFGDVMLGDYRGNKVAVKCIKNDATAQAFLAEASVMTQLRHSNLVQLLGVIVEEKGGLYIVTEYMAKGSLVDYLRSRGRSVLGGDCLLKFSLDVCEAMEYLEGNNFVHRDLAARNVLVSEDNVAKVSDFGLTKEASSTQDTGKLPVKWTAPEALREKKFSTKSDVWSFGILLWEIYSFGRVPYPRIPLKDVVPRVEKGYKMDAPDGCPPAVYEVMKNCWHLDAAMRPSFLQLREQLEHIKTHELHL

B1: S-tagged LYP polypeptide corresponding to amino acid residues 603-710 with arginine at position 620 (other, human, UniProt Q9Y2R2 603-710, looked up)
chain: LATAPRIDDEIPPPLPVRTPESFIVVEEAGEFSPNVPKSLSSAVKVKIGTSLEWGGTSEPKKFDDSVILRPSKSVKLRSPKSELHQDRSSPPPPLPERTLESFFLADE
notes: Expressed in E. coli BL21; also called Construct 1; not shown: S-tag and other vector-derived residues from pET-30 (Novagen)
As for B1, the binding result with GST tag alone is on record as “no binding”.

B2: S-tagged LYP polypeptide corresponding to amino acid residues 603-710 with tryptophan at position 620 (other, human, UniProt Q9Y2R2 603-710, looked up)
chain: LATAPRIDDEIPPPLPVWTPESFIVVEEAGEFSPNVPKSLSSAVKVKIGTSLEWGGTSEPKKFDDSVILRPSKSVKLRSPKSELHQDRSSPPPPLPERTLESFFLADE
notes: Expressed in E. coli BL21; also called Construct 2; not shown: S-tag and other vector-derived residues from pET-30 (Novagen)
Take B2: the binding result (in the data set with GST tag alone; in data set [1]) was “no binding” in each case.

B3: full length Hemagglutinin (HA) tagged LYP having R620 (protein)
chain: MDQREILQKFLDEAQSKKITKEEFANEFLKLKRQSTKYKADKTYPTTVAEKPKNIKKNRYKDILPYDYSRVELSLITSDEDSSYINANFIKGVYGPKAYIATQGPLSTTLLDFWRMIWEYSVLIIVMACMEYEMGKKKCERYWAEPGEMQLEFGPFSVSCEAEKRKSDYIIRTLKVKFNSETRTIYQFHYKNWPDHDVPSSIDPILELIWDVRCYQEDDSVPICIHCSAGCGRTGVICAIDYTWMLLKDGIIPENFSVFSLIREMRTQRPSLVQTQEQYELVYNAVLELFKRQMDVIRDKHSGTESQAKHCIPEKNHTLQADSYSPNLPKSTTKAAKMMNQQRTKMEIKESSSFDFRTSEISAKEELVLHPAKSSTSFDFLELNYSFDKNADTTMKWQTKAFPIVGEPLQKHQSLDLGSLLFEGCSNSKPVNAAGRYFNSKVPITRTKSTPFELIQQRETKEVDSKENFSYLESQPHDSCFVEMQAQKVMHVSSAELNYSLPYDSKHQIRNASNVKHHDSSALGVYSYIPLVENPYFSSWPPSGTSSKMSLDLPEKQDGTVFPSSLLPTSSTSLFSYYNSHDSLSLNSPTNISSLLNQESAVLATAPRIDDEIPPPLPVRTPESFIVVEEAGEFSPNVPKSLSSAVKVKIGTSLEWGGTSEPKKFDDSVILRPSKSVKLRSPKSELHQDRSSPPPPLPERTLESFFLADEDCMQAQSIETYSTSYPDTMENSTSSKQTLKTPGKSFTRSKSLKILRNMKKSICNSCPPNKPAESVQSNNSSSFLNFGFANRFSKPKGPRNPPPTWNI
In the case of B3, the “Dephosphorylation of an Lck phosphopeptide by immunoprecipitated HA-tagged LYP” value in data set [2] is recorded as “Immunoprecipitated LYP*R620 dephosphorylated 6.312±1.596 pmoles of substrate/min/106 transfected cells (n=5)”.
